These results are taken from patent US20240116985A1 (published 2024).

One may read the EC50 as the concentration that produces a half-maximal response. Broadly, the IC50 is the concentration that gives 50% inhibition. A high value points to weaker potency.

The labels stand for the following.
T1: B-cat-Halo (beta-catenin HaloTag construct expressed in HEK293 cells) (UniProt P35222 1-781)
T1 sequence (looked up): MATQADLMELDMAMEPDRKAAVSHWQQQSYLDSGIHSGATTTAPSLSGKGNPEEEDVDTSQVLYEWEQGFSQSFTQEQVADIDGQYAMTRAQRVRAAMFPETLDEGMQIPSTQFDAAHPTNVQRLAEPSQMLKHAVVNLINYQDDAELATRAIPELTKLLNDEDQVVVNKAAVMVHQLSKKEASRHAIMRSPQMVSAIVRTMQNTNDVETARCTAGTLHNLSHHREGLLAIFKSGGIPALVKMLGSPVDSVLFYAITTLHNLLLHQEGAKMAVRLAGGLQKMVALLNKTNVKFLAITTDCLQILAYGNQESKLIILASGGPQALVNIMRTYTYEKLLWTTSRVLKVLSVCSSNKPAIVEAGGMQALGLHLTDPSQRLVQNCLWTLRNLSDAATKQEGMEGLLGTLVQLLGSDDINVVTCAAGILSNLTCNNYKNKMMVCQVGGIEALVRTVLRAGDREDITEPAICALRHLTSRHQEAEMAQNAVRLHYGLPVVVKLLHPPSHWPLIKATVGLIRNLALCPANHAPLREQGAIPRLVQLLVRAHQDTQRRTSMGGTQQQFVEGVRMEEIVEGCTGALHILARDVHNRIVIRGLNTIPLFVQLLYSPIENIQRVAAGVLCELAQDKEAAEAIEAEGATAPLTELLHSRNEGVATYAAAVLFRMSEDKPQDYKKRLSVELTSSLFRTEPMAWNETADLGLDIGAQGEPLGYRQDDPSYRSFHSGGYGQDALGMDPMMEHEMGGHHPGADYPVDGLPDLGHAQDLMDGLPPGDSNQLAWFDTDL

T2: beta-catenin in DLD1 TCF/LEF luciferase reporter cells (UniProt P35222 1-781)
T2 sequence (looked up): T1 sequence (looked up)

T3: full-length beta-Catenin (Uniprot ID P35222) (Homo sapiens (Human), UniProt P35222 2-781)
T3 construct: The assay protocols say only 'full-length'; No tag is stated, although the AlphaScreen kit is a Histidine (Nickel Chelate) kit; also called B-Catenin; bCat
T3 sequence: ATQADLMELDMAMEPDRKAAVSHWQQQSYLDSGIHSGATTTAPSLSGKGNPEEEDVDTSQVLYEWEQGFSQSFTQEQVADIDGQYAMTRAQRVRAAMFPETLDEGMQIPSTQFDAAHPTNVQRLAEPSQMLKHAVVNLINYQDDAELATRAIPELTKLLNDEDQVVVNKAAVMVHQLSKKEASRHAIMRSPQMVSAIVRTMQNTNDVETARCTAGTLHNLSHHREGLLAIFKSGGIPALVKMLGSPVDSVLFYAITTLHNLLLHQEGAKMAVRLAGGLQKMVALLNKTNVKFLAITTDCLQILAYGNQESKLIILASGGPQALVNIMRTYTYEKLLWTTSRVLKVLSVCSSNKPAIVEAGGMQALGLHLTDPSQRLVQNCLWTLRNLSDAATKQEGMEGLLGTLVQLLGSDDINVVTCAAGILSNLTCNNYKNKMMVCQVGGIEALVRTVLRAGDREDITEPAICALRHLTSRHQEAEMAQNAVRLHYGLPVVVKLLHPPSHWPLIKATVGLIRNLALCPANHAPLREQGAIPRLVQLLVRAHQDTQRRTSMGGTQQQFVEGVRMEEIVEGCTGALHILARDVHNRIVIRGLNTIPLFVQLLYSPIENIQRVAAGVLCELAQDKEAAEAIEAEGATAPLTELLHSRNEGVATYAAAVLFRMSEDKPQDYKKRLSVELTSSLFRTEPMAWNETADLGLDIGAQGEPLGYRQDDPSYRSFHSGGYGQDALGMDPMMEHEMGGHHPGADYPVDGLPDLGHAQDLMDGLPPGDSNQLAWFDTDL

T4: full-length beta-Catenin (Uniprot ID P35222) (Homo sapiens (Human), UniProt P35222 1-781)
T4 construct: The assay protocol says 'full-length'; also called bCat; B-Catenin
T4 sequence: T1 sequence (looked up)

T5: full-length beta-Catenin (Uniprot ID P35222) (Homo sapiens (Human), UniProt P35222 2-781)
T5 construct: Used at 10 nM in the FP probe solution as 'full-length'; Also used here for the endogenous beta-catenin of the DLD1 TCF/LEF reporter cells (functional rows); also called bCat; B-Catenin
T5 sequence: T3 sequence

B1: I-355 (peptide)
peptide: XDAXDDAAFVXAWQ
modifications: not fully specified; N-terminal Ac; C-terminal NH2; PL3 at 1, B5 at 4, S8 at 11 (stapled 1-4 and 4-11)
notes: Stapled peptide composition; Earlier-eluting isomer composition; also called Ac-PL3-Asp-Ala-B5-Asp-Asp-Ala-Ala-Phe-Val-S8-Ala-Trp-Gln-NH2
B2: I-356 (peptide)
peptide: XDAXDDAAFVXAWQ
modifications: not fully specified; N-terminal Ac; C-terminal NH2; PL3 at 1, B5 at 4, S8 at 11 (stapled 1-4 and 4-11)
notes: Stapled peptide composition; Later-eluting isomer composition; also called Ac-PL3-Asp-Ala-B5-Asp-Asp-Ala-Ala-Phe-Val-S8-Ala-Trp-Gln-NH2
B3: I-358 (peptide)
peptide: XDAXDDAAFVXFAQ
modifications: not fully specified; N-terminal Ac; C-terminal NH2; PL3 at 1, B5 at 4, S8 at 11 (stapled 1-4 and 4-11)
notes: Stapled peptide composition; Later-eluting isomer composition; also called Ac-PL3-Asp-Ala-B5-Asp-Asp-Ala-Ala-Phe-Val-S8-Phe-Ala-Gln-NH2
B4: I-354 (peptide)
peptide: XDAXDDAAAVXFWQ
modifications: not fully specified; N-terminal Ac; C-terminal NH2; PL3 at 1, B5 at 4, S8 at 11 (stapled 1-4 and 4-11)
notes: Stapled peptide composition; Later-eluting isomer composition; also called Ac-PL3-Asp-Ala-B5-Asp-Asp-Ala-Ala-Ala-Val-S8-Phe-Trp-Gln-NH2
B5: I-359 (peptide)
peptide: Ac-[αAllylPro]DA[B5(19)]DDAAFV[S8][Phe(4-CN)][Bta]Q-NH2
modifications: staple 1-4, 4-11
notes: Stapled peptide composition; also called Ac-PL3-Asp-Ala-B5-Asp-Asp-Ala-Ala-Phe-Val-S8-4CNF-BztA-Gln-NH2

Starred links: 1 amine or outer side, 2 acyl side, 3 side chain; linkers in the order of their positions; H or OH if unused. Positions of bridges follow the written chain, without caps; N, C: chain ends. Non-standard residues stand in square brackets, D forms with d. Primed or numbered codes have the meaning given here. PyrS2″ = (S)-3-amino-1-((pent-4-en-1-yloxy)carbonyl)pyrrolidine-3-carboxylic acid (stapling residue), C=CCCCOC(=O)N1CC[C@@](N[*:1])(C(=O)[*:2])C1; B5(16) = 2-amino-2-(pent-4-en-1-yl)hept-6-enoic acid = 2,2-bis(4-pentenyl)glycine (stitching residue), C=CCCCC(CCCC=C)(N[*:1])C(=O)[*:2]; B5(4) = 2,2-bis(4-pentenyl)glycine = 2-amino-2-(pent-4-en-1-yl)hept-6-enoic acid (stitching residue), C=CCCCC(CCCC=C)(N[*:1])C(=O)[*:2]; B5(21) = 2-amino-2-(pent-4-en-1-yl)hept-6-enoic acid, bis(4-pentenyl)glycine (stitching residue), C=CCCCC(CCCC=C)(N[*:1])C(=O)[*:2]; SeN = (S)-5-(((allyloxy)carbonyl)(methyl)amino)-2-amino-2-methylpentanoic acid, C=CCOC(=O)N(C)CCC[C@](C)(N[*:1])C(=O)[*:2]; B5(19) = 2-amino-2-(pent-4-en-1-yl)hept-6-enoic acid (bis(4-pentenyl)glycine), C=CCCCC(CCCC=C)(N[*:1])C(=O)[*:2]; B5(3) = 2,2-bis(4-pentenyl)glycine (stitching residue), C=CCCCC(CCCC=C)(N[*:1])C(=O)[*:2]; B5 = 2-amino-2-(pent-4-en-1-yl)hept-6-enoic acid, C=CCCCC(CCCC=C)(N[*:1])C(=O)[*:2]; Phe(4-CN) = N#Cc1ccc(C[C@H](N)C(=O)O)cc1; Phe(2-Cl) = N[C@@H](Cc1ccccc1Cl)C(=O)O; Bta = N[C@@H](Cc1csc2ccccc12)C(=O)O; αAllylPro = C=CC[C@@]1(C(=O)O)CCCN1; tBuAla = CC(C)(C)C[C@H](N)C(=O)O; 3Thi = N[C@@H](Cc1ccsc1)C(=O)O; S8 = C=CCCCCCC[C@](C)(N)C(=O)O

One assay concerns the target T1, B-cat-Halo (beta-catenin HaloTag …). As to the kind of experiment: cell-based or functional assay.
Ac-[αAllylPro]D[tBuAla][B5]DDAAFN[PyrS2″][3Thi][Bta]T-NH2 (staple 1-4, 4-11) [I-814]: the “NanoBRET Abs IC50” value was 18.9 µM.

On to Ac-[αAllylPro]D[tBuAla][B5(3)]DDAAFT[PyrS2″][3Thi][Bta]Q-NH2 (staple 1-4, 4-11) [I-809], for which the “NanoBRET Abs IC50” value was 6.1 µM.

Another assay has as its target T2, beta-catenin in DLD1 TCF/LEF luciferase …. The assay can be described thus: cell-based or functional assay.
On to Ac-[αAllylPro]D[tBuAla][B5]DDAAFN[PyrS2″][3Thi][Bta]T-NH2 (staple 1-4, 4-11) [I-814], for which the “DLD1 4% Abs IC50” value turned out to be 16.5 µM.

In the case of Ac-[αAllylPro]D[tBuAla][B5(3)]DDAAFT[PyrS2″][3Thi][Bta]Q-NH2 (staple 1-4, 4-11) [I-809], the “DLD1 4% Abs IC50” value is 11.3 µM.

A further assay has as its target T3, full-length beta-Catenin (Uniprot ID …). As to the kind of experiment: AlphaScreen competition; peptide titrated against full-length beta-catenin + biotin-TCF4(10-53). The procedure: Equal volume of the titrated peptide was added to the plate and incubated for 15 minutes at 20° C. Then 4 uL of donor and 4 uL acceptor beads at 10 ug/mL were added to the plate, for a 16 uL reaction pool and protected from light for 60 minutes at 20° C. prior to read. Reads were performed on a CLARIOstar plate reader (BMG Labtech) in duplicate, and data were fitted to a 1:1 binding model with hill slope using an in-house script. All provided concentrations are final concentrations.
(In general: Bead proximity is the source of the signal in Alpha formats.)
Turning to B1, the half-maximal effective concentration (EC50) was 10 µM. Still for that read-out and setting: next, B2: 8.2 µM; B3: 10 µM.

Another assay concerns the target T4, full-length beta-Catenin (Uniprot ID …). The assay can be described thus: fluorescence polarization competition; full-length beta-catenin, 5FAM-TCF4(10-53) probe as competitor. The procedure: (§1) The plate was incubated protected from light for 60 minutes at 20° C. prior to read. Reads were performed on a CLARIOstar plate reader (BMG Labtech) in duplicate, and data were fitted to a 1:1 binding model with hill slope using an in-house script. All provided concentrations are final concentrations.
As to Ac-[αAllylPro]DA[B5(21)]DDAAFV[SeN]FWQ-NH2 (staple 1-4, 4-11, Same description as I-54) [I-53: Ac-PL3-Asp-Ala-B5-Asp-Asp-Ala-Ala-Phe-Val-SeN-Phe-Trp-Gln-NH2 (stapled peptide)], the half-maximal inhibitory concentration (IC50) is 5 µM. On the same count and under the same terms, next, Ac-[αAllylPro]DA[B5(21)]DDAAFV[S8]FWQ-NH2 (staple 1-4, 4-11, Tested as stapled peptide composition) [I-52: Ac-PL3-Asp-Ala-B5-Asp-Asp-Ala-Ala-Phe-Val-S8-Phe-Trp-Gln-NH2 (stapled peptide)]: 3.2 µM.

For the next assay, the target named is T5, full-length beta-Catenin (Uniprot ID …). The assay can be described thus: fluorescence polarization competition; 10 nM full-length beta-catenin + 10 nM 5FAM-TCF4 10-53 as competitor probe. The procedure:
as §1
Turning to Ac-[αAllylPro]DF[B5(16)]DDAAFT[PyrS2″][Phe(2-Cl)][Bta]Q-NH2 (staple 1-4, 4-11, Stapled (stitched) peptide composition) [I-1043], the EC50 was 0.012 µM. On the same count and under the same terms, next, Ac-[αAllylPro]DF[B5(4)]DDAAFT[PyrS2″][Phe(2-Cl)][Bta]S-NH2 (staple 1-4, 4-11, Stapled (stitched) peptide composition) [I-1049]: 0.006 µM.

Another assay has as its target T3, full-length beta-Catenin (Uniprot ID …). The assay can be described thus: fluorescence polarization competition; peptide titrated against full-length beta-catenin + 5FAM-TCF4(10-53) probe. The method, then:
as §1
In the case of B4, the EC50 is 5 µM. Take B5: the concentration giving a half-maximal response (EC50) stood at 5 µM. As for B1, the EC50 worked out at 5 µM. The same measure, in the same setting: next, B2: 5 µM. The same measure, in the same setting: next, B3: 5 µM.
